Test results reported in IntAct's records for PubMed 35512704.

B1: Speckle-type POZ protein (Homo sapiens), O43791 (parent)
chain: MSRVPSPPPPAEMSSGPVAESWCYTQIKVVKFSYMWTINNFSFCREEMGEVIKSSTFSSGANDKLKWCLRVNPKGLDEESKDYLSLYLLLVSCPKSEVRAKFKFSILNAKGEETKAMESQRAYRFVQGKDWGFKKFIRRDFLLDEANGLLPDDKLTLFCEVSVVQDSVNISGQNTMNMVKVPECRLADELGGLWENSRFTDCCLCVAGQEFQAHKAILAARSPVFSAMFEHEMEESKKNRVEINDVEPEVFKEMMCFIYTGKAPNLDKMADDLLAAADKYALERLKVMCEDALCSNLSVENAAEILILADLHSADQLKTQAVDFINYHASDVLETSGWKSMVVSHPHLVAEAYRSLASAQCPFLGPPRKRLKQS
partner: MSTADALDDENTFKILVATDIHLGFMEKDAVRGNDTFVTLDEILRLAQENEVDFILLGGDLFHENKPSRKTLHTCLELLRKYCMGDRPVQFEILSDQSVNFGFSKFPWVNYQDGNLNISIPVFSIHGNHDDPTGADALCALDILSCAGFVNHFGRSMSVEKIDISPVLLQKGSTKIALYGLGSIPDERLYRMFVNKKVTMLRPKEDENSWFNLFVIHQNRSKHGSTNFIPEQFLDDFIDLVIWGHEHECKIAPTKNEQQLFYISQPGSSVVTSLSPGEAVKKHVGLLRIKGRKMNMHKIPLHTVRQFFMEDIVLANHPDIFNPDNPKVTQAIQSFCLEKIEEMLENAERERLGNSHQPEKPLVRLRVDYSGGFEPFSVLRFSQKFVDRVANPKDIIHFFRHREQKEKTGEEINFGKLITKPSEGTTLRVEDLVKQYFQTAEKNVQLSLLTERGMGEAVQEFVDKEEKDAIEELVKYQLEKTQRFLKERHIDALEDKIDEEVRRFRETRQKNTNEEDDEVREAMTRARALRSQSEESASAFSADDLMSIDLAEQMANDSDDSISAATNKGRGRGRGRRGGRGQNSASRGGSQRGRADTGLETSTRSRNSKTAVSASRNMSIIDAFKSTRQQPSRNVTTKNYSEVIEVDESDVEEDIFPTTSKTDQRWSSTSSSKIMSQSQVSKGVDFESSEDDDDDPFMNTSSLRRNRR
B2: Speckle-type POZ protein (Homo sapiens), O43791 (parent)
chain: B1 chain
partner: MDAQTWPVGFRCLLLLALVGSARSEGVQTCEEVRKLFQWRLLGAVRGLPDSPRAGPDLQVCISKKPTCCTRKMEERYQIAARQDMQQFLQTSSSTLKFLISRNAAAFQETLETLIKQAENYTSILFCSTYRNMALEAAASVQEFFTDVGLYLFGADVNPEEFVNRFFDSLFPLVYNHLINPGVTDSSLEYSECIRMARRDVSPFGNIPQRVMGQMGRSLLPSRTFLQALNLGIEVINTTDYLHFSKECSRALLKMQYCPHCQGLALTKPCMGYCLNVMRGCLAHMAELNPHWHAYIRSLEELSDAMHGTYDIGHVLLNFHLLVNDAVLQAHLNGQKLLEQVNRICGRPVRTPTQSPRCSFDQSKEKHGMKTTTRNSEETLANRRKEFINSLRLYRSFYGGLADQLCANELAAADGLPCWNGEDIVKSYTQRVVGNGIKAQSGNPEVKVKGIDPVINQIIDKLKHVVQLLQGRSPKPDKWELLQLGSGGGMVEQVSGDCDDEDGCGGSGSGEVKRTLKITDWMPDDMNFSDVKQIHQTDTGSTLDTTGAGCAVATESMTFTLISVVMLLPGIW
B3: Speckle-type POZ protein (Homo sapiens), O43791 (parent)
chain: B1 chain
partner: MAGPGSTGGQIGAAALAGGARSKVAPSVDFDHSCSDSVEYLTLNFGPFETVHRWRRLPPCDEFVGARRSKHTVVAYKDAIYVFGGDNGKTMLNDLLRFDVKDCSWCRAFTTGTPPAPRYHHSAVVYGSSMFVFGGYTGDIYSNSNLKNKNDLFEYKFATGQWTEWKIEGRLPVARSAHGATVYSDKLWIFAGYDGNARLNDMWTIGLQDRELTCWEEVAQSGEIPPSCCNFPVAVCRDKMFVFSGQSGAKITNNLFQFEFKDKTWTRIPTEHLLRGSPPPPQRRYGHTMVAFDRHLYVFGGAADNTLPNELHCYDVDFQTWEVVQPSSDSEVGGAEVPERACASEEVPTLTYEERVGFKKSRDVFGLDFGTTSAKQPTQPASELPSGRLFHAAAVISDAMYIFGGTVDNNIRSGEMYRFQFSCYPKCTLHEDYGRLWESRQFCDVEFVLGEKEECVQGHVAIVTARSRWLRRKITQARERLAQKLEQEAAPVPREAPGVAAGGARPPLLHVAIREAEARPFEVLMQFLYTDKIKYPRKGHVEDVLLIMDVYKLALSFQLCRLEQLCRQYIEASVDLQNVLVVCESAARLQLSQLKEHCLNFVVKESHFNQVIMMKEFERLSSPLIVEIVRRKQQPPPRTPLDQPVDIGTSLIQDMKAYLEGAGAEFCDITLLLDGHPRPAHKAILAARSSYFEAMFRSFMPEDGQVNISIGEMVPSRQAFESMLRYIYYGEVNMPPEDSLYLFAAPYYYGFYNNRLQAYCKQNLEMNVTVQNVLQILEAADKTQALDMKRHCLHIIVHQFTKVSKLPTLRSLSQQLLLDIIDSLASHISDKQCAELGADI
B4: Speckle-type POZ protein (Homo sapiens), O43791 (parent)
chain: B1 chain
partner: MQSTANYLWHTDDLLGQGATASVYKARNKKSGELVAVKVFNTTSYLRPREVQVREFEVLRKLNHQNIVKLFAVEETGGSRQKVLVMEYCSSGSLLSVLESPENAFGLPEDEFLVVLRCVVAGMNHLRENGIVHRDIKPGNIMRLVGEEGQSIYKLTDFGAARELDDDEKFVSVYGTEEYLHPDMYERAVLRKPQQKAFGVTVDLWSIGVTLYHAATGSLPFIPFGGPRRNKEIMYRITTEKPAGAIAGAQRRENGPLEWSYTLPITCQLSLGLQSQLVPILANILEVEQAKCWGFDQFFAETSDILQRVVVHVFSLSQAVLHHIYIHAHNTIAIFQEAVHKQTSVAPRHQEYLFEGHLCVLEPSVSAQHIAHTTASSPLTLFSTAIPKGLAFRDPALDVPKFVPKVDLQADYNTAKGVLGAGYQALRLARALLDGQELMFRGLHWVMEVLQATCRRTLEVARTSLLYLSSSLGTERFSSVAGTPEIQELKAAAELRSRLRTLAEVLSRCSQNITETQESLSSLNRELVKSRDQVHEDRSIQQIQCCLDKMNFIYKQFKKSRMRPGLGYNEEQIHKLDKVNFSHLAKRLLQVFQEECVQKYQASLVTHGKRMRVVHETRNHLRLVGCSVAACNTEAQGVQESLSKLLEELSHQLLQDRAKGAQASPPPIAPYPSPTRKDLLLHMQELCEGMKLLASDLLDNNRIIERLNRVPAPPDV
B5: Speckle-type POZ protein (Homo sapiens), O43791 (parent)
chain: B1 chain
partner: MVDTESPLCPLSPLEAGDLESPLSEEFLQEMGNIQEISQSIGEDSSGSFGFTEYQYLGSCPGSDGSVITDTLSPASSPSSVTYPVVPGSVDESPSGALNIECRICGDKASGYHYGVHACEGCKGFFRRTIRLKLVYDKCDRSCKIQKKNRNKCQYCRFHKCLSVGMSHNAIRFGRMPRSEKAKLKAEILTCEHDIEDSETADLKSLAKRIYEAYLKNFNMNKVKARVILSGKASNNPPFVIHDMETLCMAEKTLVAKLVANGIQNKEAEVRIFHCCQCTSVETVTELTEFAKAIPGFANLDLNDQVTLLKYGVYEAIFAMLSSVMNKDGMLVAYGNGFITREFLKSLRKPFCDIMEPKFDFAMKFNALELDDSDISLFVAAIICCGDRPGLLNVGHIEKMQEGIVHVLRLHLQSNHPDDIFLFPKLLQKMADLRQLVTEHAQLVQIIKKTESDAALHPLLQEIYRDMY
B6: Speckle-type POZ protein (Homo sapiens), O43791 (parent)
chain: B1 chain
partner: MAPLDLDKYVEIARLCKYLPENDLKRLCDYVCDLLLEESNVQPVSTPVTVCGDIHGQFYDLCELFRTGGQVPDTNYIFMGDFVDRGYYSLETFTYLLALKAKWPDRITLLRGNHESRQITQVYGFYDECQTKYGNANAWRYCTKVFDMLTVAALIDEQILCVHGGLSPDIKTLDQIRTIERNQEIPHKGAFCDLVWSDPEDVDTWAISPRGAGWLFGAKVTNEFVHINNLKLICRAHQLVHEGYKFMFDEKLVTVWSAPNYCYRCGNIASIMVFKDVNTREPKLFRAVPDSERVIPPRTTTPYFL
B7: Speckle-type POZ protein (Homo sapiens), O43791 (parent)
chain: B1 chain
partner: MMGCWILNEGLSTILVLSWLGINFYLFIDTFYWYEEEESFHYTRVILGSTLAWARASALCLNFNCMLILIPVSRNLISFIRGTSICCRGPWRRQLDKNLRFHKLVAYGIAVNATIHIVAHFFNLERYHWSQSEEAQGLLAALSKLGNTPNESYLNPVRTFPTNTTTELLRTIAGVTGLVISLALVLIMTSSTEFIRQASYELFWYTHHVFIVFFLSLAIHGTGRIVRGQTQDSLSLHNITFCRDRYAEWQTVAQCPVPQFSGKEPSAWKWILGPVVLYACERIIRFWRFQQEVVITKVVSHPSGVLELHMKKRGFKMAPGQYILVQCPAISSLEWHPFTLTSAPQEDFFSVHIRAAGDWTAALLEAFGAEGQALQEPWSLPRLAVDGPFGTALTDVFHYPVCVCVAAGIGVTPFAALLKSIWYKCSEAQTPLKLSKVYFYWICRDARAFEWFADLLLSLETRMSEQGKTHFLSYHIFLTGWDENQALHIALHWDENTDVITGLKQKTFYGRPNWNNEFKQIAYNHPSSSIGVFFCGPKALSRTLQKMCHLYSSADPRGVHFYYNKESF

Variants of: B1
Conditions: with mre11_human MRE11, P49959

Row | effect of a mutation on the interaction | Variant
1 | with no effect | F102C

Variants of: B2
Conditions: with gpc5_human GPC5, P78333

Row | effect of a mutation on the interaction | Variant
2 | with no effect | F133V

Variants of: B2
Conditions: with gpc5_human GPC5, P78333
Remark: another data set of the same source

Row | effect of a mutation on the interaction | Variant
3 | with no effect | F133L

Variants of: B2
Conditions: with gpc5_human GPC5, P78333
Remark: another data set of the same source

Row | effect of a mutation on the interaction | Variant
4 | with no effect | F102C

Variants of: B2
Conditions: with gpc5_human GPC5, P78333
Remark: another data set of the same source

Row | effect of a mutation on the interaction | Variant
5 | with no effect | Y87C

Variants of: B3
Conditions: with lztr1_human LZTR1, Q8N653

Row | effect of a mutation on the interaction | Variant
6 | with no effect | F102C

Variants of: B3
Conditions: with lztr1_human LZTR1, Q8N653
Remark: another data set of the same source

Row | effect of a mutation on the interaction | Variant
7 | with no effect | Y87C

Variants of: B3
Conditions: with lztr1_human LZTR1, Q8N653
Remark: another data set of the same source

Row | effect of a mutation on the interaction | Variant
8 | with no effect | F133L

Variants of: B3
Conditions: with lztr1_human LZTR1, Q8N653
Remark: another data set of the same source

Row | effect of a mutation on the interaction | Variant
9 | with no effect | F133V

Variants of: B4
Conditions: with ikke_human IKBKE

Row | effect of a mutation on the interaction | Variant
10 | with no effect | Y87C

Variants of: B4
Conditions: with ikke_human IKBKE
Remark: another data set of the same source

Row | effect of a mutation on the interaction | Variant
11 | with no effect | F133L

Variants of: B4
Conditions: with ikke_human IKBKE
Remark: another data set of the same source

Row | effect of a mutation on the interaction | Variant
12 | with no effect | F133V

Variants of: B4
Conditions: with ikke_human IKBKE
Remark: another data set of the same source

Row | effect of a mutation on the interaction | Variant
13 | with no effect | F102C

Variants of: B5
Conditions: with ppara_human PPARA

Row | effect of a mutation on the interaction | Variant
14 | with no effect | F102C

Variants of: B5
Conditions: with ppara_human PPARA
Remark: another data set of the same source

Row | effect of a mutation on the interaction | Variant
15 | with no effect | F133V

Variants of: B5
Conditions: with ppara_human PPARA
Remark: another data set of the same source

Row | effect of a mutation on the interaction | Variant
16 | with no effect | F133L

Variants of: B5
Conditions: with ppara_human PPARA
Remark: another data set of the same source

Row | effect of a mutation on the interaction | Variant
17 | with no effect | Y87C

Variants of: B6
Conditions: with ppp6_human PPP6C

Row | effect of a mutation on the interaction | Variant
18 | with no effect | F133L

Variants of: B6
Conditions: with ppp6_human PPP6C
Remark: another data set of the same source

Row | effect of a mutation on the interaction | Variant
19 | with no effect | F133V

Variants of: B6
Conditions: with ppp6_human PPP6C
Remark: another data set of the same source

Row | effect of a mutation on the interaction | Variant
20 | with no effect | Y87C

Variants of: B6
Conditions: with ppp6_human PPP6C
Remark: another data set of the same source

Row | effect of a mutation on the interaction | Variant
21 | with no effect | F102C

Variants of: B7
Conditions: with nox3_human NOX3, Q9HBY0

Row | effect of a mutation on the interaction | Variant
22 | with no effect | F102C

Variants of: B7
Conditions: with nox3_human NOX3, Q9HBY0
Remark: another data set of the same source

Row | effect of a mutation on the interaction | Variant
23 | with no effect | Y87C
